Assay results as given in FireProtDB (doi:10.1016/j.jmb.2009.11.038).

B1: H8P, Q5NV88 (parent)
chain: NFMLTQPHSVSESPGKTVTISCTRSSGSIASNYVQWYQQRPGSSPTTVIYEDNQRPSGVPDRFSGSIDSSSNSASLTISGLKTEDEADYYCQSYDSSN

Variants of: B1
Settings: Homo sapiens, pH 7.5, Fluorescence, Sodium phosphate 20mM, transition: 2, structure 2W0K, whole UniProt chain shown

Variant	Tm (Thermal) [°C]	change of melting temperature, mutant - wild type (higher = more stable) (Thermal) [°C]	ddG of mutation (higher = less stable) (Thermal) [kcal/mol]	unfolding enthalpy (calorimetric) (Thermal) [kcal/mol]	unfolding free energy (Thermal) [kcal/mol]	ddG of mutation (higher = less stable) (25 °C, GdnHCl) [kcal/mol]	denaturant midpoint (higher = more stable) (25 °C, GdnHCl) [M]	unfolding free energy (25 °C, GdnHCl) [kcal/mol]
H8P	50.1	0.2	0.8	84.8	4.4			
H8S	49.5	-0.4	0.2	84.4	5	0.6	1.28	4.5
P7S	43	-6.9	1.5	79.5	3.7	2.6	0.84	2.5
P7S H8S	43.7	-6.2	1.4	79.4	3.8			
